Laboratory results taken from patent US20230087785A1, “Leucine-Rich Repeat Kinase 2 Allosteric Modulators” (VIB VZW, priority 2020, published 2023).

T1: Roc domain (Homo sapiens, UniProt Q5S007)
T1 construct: A construct of the Roc domain spanning the residues 1329-1520 was cloned in the pET-28a vector providing an N-terminal His6-tag; His6 (N); made in house; host or cells: E. coli BL21(DE3)
T1 sequence (Q5S007 1329-1520): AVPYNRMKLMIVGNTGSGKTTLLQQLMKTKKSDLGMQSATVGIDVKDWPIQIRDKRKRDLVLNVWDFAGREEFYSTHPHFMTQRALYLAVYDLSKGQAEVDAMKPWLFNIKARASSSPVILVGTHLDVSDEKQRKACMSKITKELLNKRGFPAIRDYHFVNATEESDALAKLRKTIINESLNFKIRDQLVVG

B1: Nb42: LRRK2-specific Nanobody, SEQ ID NO: 6 (protein)
VHH: MAQVQLVESGGGLVQAGGSLRLSCAASGDVNYAVGWFRQAPRKEREFVAAINWRGDNTDYTDSVKGRFTISRDNAKNTVYLQMNSLKPEDTAVYYCAAKSAPYWYSDIAPDYWGQGTQVTVSS
modifications: Nanobody CA14259
B2: Nb23: LRRK2-specific Nanobody, SEQ ID NO: 3 (protein)
VHH: MAQVQLVESGGGLVQAGGSLRLSCAASGRTFSRYTMGWFRQAPGKDREFVARITTSGAVTTYADSAKGRFTISRDNAKNTVYLQMNTLKPEDTAVYYCAAGQGQLSSQSRFVDYWGQGTQVTVSS
modifications: Nanobody CA13612

Tests used:
[1] = molecular target: T1, Roc domain; assay: Analytical size exclusion chromatography; type: binding; settings: data not shown
[2] = molecular target: T2, full-length LRRK2 (Homo sapiens, UniProt Q5S007, M2397T/R50H); assay: Microscale thermophoresis (MST) affinity measurement; type: binding; settings: m-TAMRA-labeled Nb titrated with LRRK2; 500 μM GDP
T2 construct: Full-length human LRRK2 was expressed and purified based on previously developed protocols; SF tag (FLAG-tag + Twin-Strep-tag); made in house; host or cells: HEK 293T
Source text: Binding isotherms are shown, obtained by titrating increasing concentrations of LRRK2 to fluorescently (m-TAMRA)-labeled Nbs and measuring the MST signals. Nbs are classified into four functional groups as defined in FIG. 2d with (FIG. 13A) group 1 Nbs, (FIG. 13B) group 2 Nbs, (FIG. 13C) group 3 Nbs, and (FIG. 13D) group 4 Nbs. In panel (FIG. 13E) two negative controls are shown, where LRRK2 was either titrated to free m-TAMRA or to a m-TAMRA-labeled irrelevant Nb. All measurements were performed in presence of 500 μM GDP, except for Nb42 where GTPγS was used. The corresponding equilibrium dissociation constants (Kd±standard error) obtained by fitting with a quadratic binding equation are given (each data point is the average of three independent measurements with the error bars representing the standard deviation; NB=no MST binding signal detectable).
To determine the binding affinity (dissociation constant KD) of the ten Nbs for LRRK2, two methods were used in parallel: microscale thermophoresis (MST) and bio-layer interferometry (BLI). […] For the BLI experiment LRRK2 was first trapped on a streptavidin-coated biosensor using biotinylated Nb40 as trapping agent (except to assess binding of Nb40, where Nb42 was used as trapping agent), after which binding of all Nbs to LRRK2 was determined. […]

T2 sequence (Q5S007 whole entry R50H/M2397T): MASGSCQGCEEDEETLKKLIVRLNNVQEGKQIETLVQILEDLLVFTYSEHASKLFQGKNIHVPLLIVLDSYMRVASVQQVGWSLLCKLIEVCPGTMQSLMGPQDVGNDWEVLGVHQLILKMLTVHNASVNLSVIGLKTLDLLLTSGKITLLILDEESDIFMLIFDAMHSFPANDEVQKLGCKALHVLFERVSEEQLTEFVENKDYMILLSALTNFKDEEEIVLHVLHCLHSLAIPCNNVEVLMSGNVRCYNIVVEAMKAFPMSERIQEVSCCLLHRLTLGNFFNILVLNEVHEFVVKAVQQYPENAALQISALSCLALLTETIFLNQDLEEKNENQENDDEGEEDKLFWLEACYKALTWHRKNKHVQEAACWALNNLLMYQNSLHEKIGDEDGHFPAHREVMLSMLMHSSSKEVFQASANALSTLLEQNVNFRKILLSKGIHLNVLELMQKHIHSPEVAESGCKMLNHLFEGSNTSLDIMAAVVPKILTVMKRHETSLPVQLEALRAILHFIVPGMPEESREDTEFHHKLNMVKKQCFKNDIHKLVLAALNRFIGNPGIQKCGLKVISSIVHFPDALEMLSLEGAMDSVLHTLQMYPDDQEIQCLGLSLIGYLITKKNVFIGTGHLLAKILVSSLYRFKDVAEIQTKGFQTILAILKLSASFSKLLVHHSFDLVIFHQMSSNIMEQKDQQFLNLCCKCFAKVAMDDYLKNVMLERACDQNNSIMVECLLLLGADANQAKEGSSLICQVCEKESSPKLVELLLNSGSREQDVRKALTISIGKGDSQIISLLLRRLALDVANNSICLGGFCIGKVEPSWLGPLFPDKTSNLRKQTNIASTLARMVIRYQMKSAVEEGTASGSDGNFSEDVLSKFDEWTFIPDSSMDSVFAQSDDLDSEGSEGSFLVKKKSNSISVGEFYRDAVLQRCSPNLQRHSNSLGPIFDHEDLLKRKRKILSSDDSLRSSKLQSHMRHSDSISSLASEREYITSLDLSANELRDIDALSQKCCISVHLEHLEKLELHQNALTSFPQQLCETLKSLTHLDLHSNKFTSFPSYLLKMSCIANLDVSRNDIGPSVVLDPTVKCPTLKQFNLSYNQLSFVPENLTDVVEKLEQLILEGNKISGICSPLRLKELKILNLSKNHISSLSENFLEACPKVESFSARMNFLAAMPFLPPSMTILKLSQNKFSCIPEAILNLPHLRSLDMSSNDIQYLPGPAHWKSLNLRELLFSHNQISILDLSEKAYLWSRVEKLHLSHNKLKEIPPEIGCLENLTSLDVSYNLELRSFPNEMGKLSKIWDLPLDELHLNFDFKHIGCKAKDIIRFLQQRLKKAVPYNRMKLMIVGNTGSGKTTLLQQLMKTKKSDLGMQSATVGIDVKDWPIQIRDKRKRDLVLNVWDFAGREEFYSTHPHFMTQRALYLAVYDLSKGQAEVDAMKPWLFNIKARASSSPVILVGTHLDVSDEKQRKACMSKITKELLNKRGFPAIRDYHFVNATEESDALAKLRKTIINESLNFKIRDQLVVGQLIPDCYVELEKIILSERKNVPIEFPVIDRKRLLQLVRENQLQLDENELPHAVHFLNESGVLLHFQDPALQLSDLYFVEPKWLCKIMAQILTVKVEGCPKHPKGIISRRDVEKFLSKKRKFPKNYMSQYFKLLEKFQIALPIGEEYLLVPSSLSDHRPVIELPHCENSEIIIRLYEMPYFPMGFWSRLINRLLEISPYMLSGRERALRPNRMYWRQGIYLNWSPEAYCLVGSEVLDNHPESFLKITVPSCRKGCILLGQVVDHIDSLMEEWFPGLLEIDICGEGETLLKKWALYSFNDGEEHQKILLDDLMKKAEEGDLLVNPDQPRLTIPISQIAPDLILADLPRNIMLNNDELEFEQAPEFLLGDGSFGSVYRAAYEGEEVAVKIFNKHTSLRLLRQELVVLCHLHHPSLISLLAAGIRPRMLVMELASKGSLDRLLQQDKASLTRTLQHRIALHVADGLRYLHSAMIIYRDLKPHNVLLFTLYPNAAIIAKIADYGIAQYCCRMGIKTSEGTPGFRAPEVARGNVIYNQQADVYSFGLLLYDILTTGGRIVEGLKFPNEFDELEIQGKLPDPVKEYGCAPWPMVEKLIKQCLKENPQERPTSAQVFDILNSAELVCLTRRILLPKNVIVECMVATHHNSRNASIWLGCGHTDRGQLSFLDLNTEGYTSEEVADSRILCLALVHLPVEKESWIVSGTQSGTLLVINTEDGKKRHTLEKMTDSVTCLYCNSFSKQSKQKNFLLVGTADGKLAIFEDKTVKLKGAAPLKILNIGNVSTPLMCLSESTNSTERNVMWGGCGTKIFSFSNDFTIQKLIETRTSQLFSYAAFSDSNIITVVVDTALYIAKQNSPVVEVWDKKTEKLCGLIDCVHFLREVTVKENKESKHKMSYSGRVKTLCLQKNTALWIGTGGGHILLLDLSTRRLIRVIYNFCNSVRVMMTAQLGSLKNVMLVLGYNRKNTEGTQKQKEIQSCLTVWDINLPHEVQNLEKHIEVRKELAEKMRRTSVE

Molecule	binding to Roc [1]	KD (nM)-MST [2]
B1	binding to Roc was confirmed	–
B2	–	did not generate a change in thermophoresis behavior
